# Test results: paper PMC6868158
# Key:
# [1] = system: tTALE-eGFP (truncated TALE, 7-mer TGTCTGT repeat domain, fused to eGFP) (artificial construct (from TALEN plasmid RHD_Exon4_TALEN_L)); assay: FRET; settings: FRET: TE pH 8.0, 100 nM dsDNA, 10-100 nM tTALE-eGFP for Kd; NaCl series 0-200 mM at 30 nM protein; excitation 488 nm, emission 631 nm; temperature not stated
# [2] = system: tTALE-eGFP (truncated TALE, 7-mer TGTCTGT repeat domain, fused to eGFP) (artificial construct (from TALEN plasmid RHD_Exon4_TALEN_L)); assay: single-molecule fluorescence (surface-immobilized DNA in flow cell); settings: FRET: TE pH 8.0, 100 nM dsDNA, 10-100 nM tTALE-eGFP for Kd; NaCl series 0-200 mM at 30 nM protein; excitation 488 nm, emission 631 nm; temperature not stated
substance,measurement,setting,value
TGTCTGTATG (double strand) [target DNA],Kd,[1],26.7 nM
lambda DNA,K half,[2],22 nM
